Measurements: publication PMC10309188

Tests used:
Experiment in all cases: SPR
[1] = target: MR1 E76Q E149Q refolded with 5-FSA, biotinylated (SPR) (UniProt Q95460)
[2] = target: MR1 E76Q E149Q refolded with 6-FP, biotinylated (SPR) (UniProt Q95460)
[3] = target: wildtype MR1 refolded with 5-F-SA, biotinylated (SPR) (UniProt Q95460)
[4] = target: wildtype MR1 refolded with 6-FP, biotinylated (SPR) (UniProt Q95460)

Measured: Kd

AF-7 TCR
> 150 µM: all assays above
